According to PMC3315512, “The Lid Domain of Caenorhabditis elegans Hsc70 Influences ATP Turnover, Cofactor Binding and Protein Folding Activity” (PLoS ONE, 2012):
Values belong to the binder of their own block, whether it stands above or below them.

Assays:
[1] = molecular target: T1, His6-CeHsc70 (Caenorhabditis elegans Hsc70, HSP-1) (C. elegans, UniProt P09446 1-640); assay: cell-based or functional assay
[2] = molecular target: the molecule itself; assay: AUC; sedimentation velocity with fluorescence detection, 300 nM *DNJ-13 alone, 20°C, 42 000 rpm; whole boundary fitting and C(s) (UltraScan)
[3] = molecular target: T1, His6-CeHsc70 (Caenorhabditis elegans …); assay: AUC; competition: 15 µM BAG-1 added to 300 nM *DNJ-13, 3 µM CeHsc70 and 4 mM ATP; sedimentation velocity with fluorescence detection; dc/dt analysis; details: both partners purified

T1 sequence (P09446 whole entry): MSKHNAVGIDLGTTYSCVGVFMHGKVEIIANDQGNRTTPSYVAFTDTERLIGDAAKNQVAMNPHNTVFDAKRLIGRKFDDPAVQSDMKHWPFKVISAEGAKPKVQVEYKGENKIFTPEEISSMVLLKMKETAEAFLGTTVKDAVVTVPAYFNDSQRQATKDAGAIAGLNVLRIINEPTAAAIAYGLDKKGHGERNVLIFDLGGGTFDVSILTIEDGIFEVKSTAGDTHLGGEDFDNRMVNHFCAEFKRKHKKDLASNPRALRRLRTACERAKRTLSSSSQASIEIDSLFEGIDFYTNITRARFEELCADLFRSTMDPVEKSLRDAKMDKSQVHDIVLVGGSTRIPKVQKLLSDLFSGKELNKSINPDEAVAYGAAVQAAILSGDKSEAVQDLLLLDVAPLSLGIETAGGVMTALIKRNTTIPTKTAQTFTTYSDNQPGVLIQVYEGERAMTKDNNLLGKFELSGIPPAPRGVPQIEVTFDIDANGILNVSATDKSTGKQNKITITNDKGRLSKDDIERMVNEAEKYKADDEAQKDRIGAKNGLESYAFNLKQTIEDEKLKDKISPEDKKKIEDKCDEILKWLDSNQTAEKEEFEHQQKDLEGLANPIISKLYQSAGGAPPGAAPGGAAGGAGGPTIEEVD

apparent KD of DNJ-13 from titration of the steady-state ATPase activity of 1 µM CeHsc70 in the presence of 2 µM BAG-1, standard buffer, 25°C [1]: 6.8 µM
B1: DNJ-13 (C. elegans, unlabelled) (natural protein)
chain: not shown

B2: *DNJ-13 (C. elegans DNJ-13 labelled with carboxyfluorescein) (natural protein)
chain: not shown
modifications: 5-(and-6)-carboxyfluorescein succinimidylester, preferential labeling at the N-terminal amine group (labelling efficiency 1.2)
notes: DNJ-13, Hsp40-like J-domain protein of C. elegans (Sis1 / DNAJB homolog); also called fluorescently labeled DNJ-13; source: E. coli BL21-CodonPlus (DE3)-RIL, purified (HisTrap, ResourceS, Superdex 75), then labelled
stoichiometry N [2]: 2

binding result [3]: binds
B3: BAG-1 (C. elegans, unlabelled) (natural protein, UniProt O44739 1-210, looked up)
chain: MKVNVSCSSVQTTIDILEENQGEDESILTLGQLRDRIATDNDVDVETMKLLHRGKFLQGADDVSLSTLNFKENDKIIVMGGKNALVDDAGFKMLMQYEKHNLSNLQKAYDLNLRDVADLERGFLEKPKQVEMGKKLEKKVKYFNEEAERHLETLDGMNIITETTPENQAKRNREKRKTLVNGIQTLLNQNDALLRRLQEYQSVLNGDIPE
notes: BAG-1, nucleotide exchange factor of C. elegans, full-length, cloned from a C. elegans cDNA preparation; a His tag is surmised from the HisTrap column; also called nematodal BAG-1; source: E. coli BL21-CodonPlus (DE3)-RIL, purified (HisTrap, ResourceQ, Superdex 75)
